From patent US10011659B2, “Compositions and methods for treating cancer resistant to a tyrosine kinase inhibitor (TKI)” (Yeda Research and Development Co. Ltd., priority 2014, dated 2018)
Changes are numbered by the printed parent chain. Entries after “also recorded” stand apart in the source; their conditions may differ.

Assays:
PC9ER-AZDR cells [1] = test: MTT cell survival assay; assay type: cell-based, human; details: 72 hours, increasing doses
Method: (§1) Cell cultures—The H1975 (ATCC; NCI-H1975_CRL-5908) lung cancer cell line (EGFR mutations: L858R and T790M, ATCC; Rockville, Md.), PC9 and erlotinib-resistant PC9ER lung cancer cells (de1746-750+T790M) (described in 16) were maintained in RPMI-1640 supplemented with 10% FCS (Life technology) and antibiotics. PC9ER cells resistant to AZD-9291, denoted as PC9ER-AZDR cells, were generated by incubating PC9ER cells with AZD-9291 for three months. The dose, initially provided at 0.5 nM, was increased every 4 days per 1.5 fold up to 2.5 μM. NL20 (ATCC; NL20_CRL-2503), an immortalized human bronchial epithelial cell line (ATCC, Rockville, Md.) was maintained in F12K medium as recommended by the ATCC. Co-cultures in a ratio of 1:1 of WI38 (ATCC; CCL-75) and PC9ER or H1975 cells were maintained in DME medium supplemented with sodium pyruvate and fetal calf serum (FCS 5%; Life Technology).
(§2) Cell growth and survival—Cell survival was assessed using the 3-(4,5-dimethylthiazol-2-yl)-2,5 diphenyl tetrazolium bromide (MTT) assay (Sigma Cat#M2003). Cells were plated on 96-wells plates (2,000 cells/well) in triplicates. The medium was changed the following day and cells were treated as indicated. Following 3-4 days of incubation, MTT reagent was added to the cells for one hour followed by dissolving of the formazan crystals in SDS-DMF solution. Absorbance was measured using a microplate reader, Biorad Model 680, at 570 nm.

[2] = test system: EGFR phosphorylation in PC9ER-AZDR cells; test: Western blot (immunoblot) of EGFR phosphorylation; assay type: cell-based, human; details: 1 μM, 6 hours
PC9ER NSCLC cells = test: Tumorigenic growth in-vivo, xenograft; design: species or system CD1-nu/nu mice
Method: CD1/nude mice (Harlan Laboratories) were randomized in groups of ten mice and injected subcutaneously in the right flank with H1975 lung cancer cells (3×10^6 per mouse) or with PC9ER lung cancer cells (4×10^6 per mouse). PBS or mAbs were injected intraperitoneally once every three days at a total dose of 200 μg per mouse per injection starting 11 days following cells injection, until tumors reached the size of 1,500 mm^3. […] Few of the tumors were harvested from mice at the indicated time points and taken for further evaluation. Survival of the tumor bearing mice was recorded and depicted by Kaplan-Meier analysis.

H1975 NSCLC cells = test: Tumorigenic growth in-vivo, xenograft; design: species or system CD1-nu/nu mice; details: for tumor growth: mAbs intraperitoneally once every three days from day 11, total 200 μg per mouse per injection
Method: Tumorigenic growth in-vivo—The animal studies were approved by the Weizmann Institute's Review Board (IRB). CD1/nude mice (Harlan Laboratories) were randomized in groups of ten mice and injected subcutaneously in the right flank with H1975 lung cancer cells (3×10^6 per mouse) or with PC9ER lung cancer cells (4×10^6 per mouse). PBS or mAbs were injected intraperitoneally once every three days at a total dose of 200 μg per mouse per injection starting 11 days following cells injection, until tumors reached the size of 1,500 mm^3. In experiments evaluating the effect of the TKI AZD-9291, Vehicle (Vehicle formulation: HPMC 0.5% (sigma Cat#56340), Tween80 0.1% (Sigma Cat #P8074 in water), Erlotinib at a dose of 50 mg/kg per injection, or AZD9291 at a dose of 1 or 5 mg/kg per injection were injected daily intraperitoneally. In one experiment (FIG. 17), mice were treated daily with Erlotinib at a dose of 50 mg/kg per injection until tumors reached a size of 800 mm^3 and only then were treated as indicated. Tumor volume was evaluated twice a week and body weight was evaluated once a week. Mice were euthanized when tumor size reached 1,500 mm^3. Few of the tumors were harvested from mice at the indicated time points and taken for further evaluation. Survival of the tumor bearing mice was recorded and depicted by Kaplan-Meier analysis.

PC9ER-AZDR cells [3] = test: Tumorigenic growth in-vivo, xenograft; details: erlotinib 50 mg/kg/d; AZD9291 1 and 5 mg/kg/d; 3×mAbs 0.2 mg/mouse/injection once every three days
Method: A derivative of PC9ER cells (erlotinib-resistant) was implanted in the flank of immune compromised mice. Vehicle, erlotinib (50 mg/kg/d), low-dose AZD9291 (L; 1 mg/kg/d) and high-dose AZD9291 (H; 5 mg/kg/d) were daily administrated by oral gavage, while the 3×mAbs (triple antibody combination; CTX, TRZ, 33; 0.2 mg/mouse/injection) were administrated once every three days by intraperitoneal injection. Data are means±SEM from 9 mice in each group.
Tumorigenic growth in-vivo—The animal studies were approved by the Weizmann Institute's Review Board (IRB). […] In experiments evaluating the effect of the TKI AZD-9291, Vehicle (Vehicle formulation: HPMC 0.5% (sigma Cat#56340), Tween80 0.1% (Sigma Cat #P8074 in water), Erlotinib at a dose of 50 mg/kg per injection, or AZD9291 at a dose of 1 or 5 mg/kg per injection were injected daily intraperitoneally. In one experiment (FIG. 17), mice were treated daily with Erlotinib at a dose of 50 mg/kg per injection until tumors reached a size of 800 mm^3 and only then were treated as indicated. Tumor volume was evaluated twice a week and body weight was evaluated once a week. Mice were euthanized when tumor size reached 1,500 mm^3. […] Survival of the tumor bearing mice was recorded and depicted by Kaplan-Meier analysis.

PC9ER cells = test: MTT cell survival assay; assay type: cell-based, human; details: for ability to inhibit survival of cultured NSCLC cells: 4 days, versus other anti-EGFR, anti-HER2, anti-HER3 mAbs (FIG. 3)
Method: as §1, §2

H1975 cells = test: MTT cell survival assay; assay type: cell-based, human; details: for ability to inhibit survival of cultured NSCLC cells: 4 days, versus other anti-EGFR, anti-HER2, anti-HER3 mAbs (FIG. 3)
Method: as §1, §2

PC9 cells = test: MTT cell survival assay; assay type: cell-based, human; details: 3 days treatment with increasing doses
Method: as §1, §2

[4] = test system: EGFR, HER2, HER3, AKT, ERK and their phosphorylated forms in PC9ER cells; test: Western blot time course of receptors and downstream pathways; assay type: cell-based, human; details: 10 μg/ml; for ERK activation / re-activation (phosphorylation): late peak at about 24 hours
Method: (§3) Western blot analysis—Cells were grown under specified conditions or treated as indicated. Following the cells were washed twice with cold PBS and scraped into lysis buffer [50 mM Hepes (pH 7.5), 10% glycerol, 150 mM NaCl, 1% Triton X-100, 1 mM EDTA, 1 mM EGTA, 10 mM NaF, 0.1 mM Na3VO4, and a complete protease inhibitor cocktail]. Thereafter, lysates were centrifuged at 14,000 g for 15 minutes at 4° C. The supernatant was used for subsequent procedures. Western blot analyses were conducted following protein separation using gel electrophoresis and transfer to nitrocellulose membranes. Immunoblotting was performed according to the antibody manufacturers' recommendation. Blocking was done using 5% milk in PBST (0.5% Tween20 Sigma Cat#P9416). Antibody binding to membrane blots was detected using horseradish peroxidase—secondary antibodies (Jackson ImmunoResearch Laboratories), followed by treatment with ECL Western blotting detection reagents (GE Healthcare).

[5] = test system: EGFR, HER2, HER3 and phosphorylated forms in PC9ER and H1975 cells; test: Western blot after long-term exposure to anti-EGFR mAb; assay type: cell-based, human; details: resistant cell lines
Method: as §3

[6] = 3 days treatment with increasing doses, EGFR T790M

C=CC(=O)Nc1cc(Nc2nccc(-c3cn(C)c4ccccc34)n2)c(OC)cc1N(C)CCN(C)C [AZD-9291]
survival / sensitivity (MTT) (PC9ER-AZDR cells [1]): lost sensitivity
survival / sensitivity (MTT) (PC9ER-AZDR cells [1]; listed as AZD9291): clearly demonstrated resistance
EGFR phosphorylation [2]: remained phosphorylated
EGFR phosphorylation ([2]; listed as AZD9291): failed to inhibit EGFR phosphorylation
tumor relapse in post-treatment phase (PC9ER NSCLC cells; erlotinib 1st line to approximately 550 mm^3, 2nd line treatment to day 50, then no treatment, AZD9291 1 or 5 mg/kg/d, 3×mAbs 0.2 mg/mouse/injection): relapse of tumors; also recorded: rapid and dramatic relapse
body weight gain (H1975 NSCLC cells; AZD9291 5 mg/kg/day, compared with the triple mAb combination): slightly inhibited body weight gain
growth of the erlotinib-resistant human NSCLC tumor (H1975 NSCLC cells; AZD9291 5 mg/kg/day, triple combination of antibodies (CTX+TRZ+33)): comparably inhibited growth
tumor growth / tumor volume (PC9ER-AZDR cells [3]): Neither erlotinib nor AZD9291 (at both low and high doses) were able to significantly inhibit tumor growth

C#Cc1cccc(Nc2ncnc3cc(OCCOC)c(OCCOC)cc23)c1 [erlotinib]
cell survival (PC9ER cells; [6]): exhibited resistance
cell survival (H1975 cells; [6]): exhibited resistance
cell survival (PC9 cells): strongly inhibited
tumor growth, 1st line phase (PC9ER NSCLC cells; erlotinib 50 mg/kg/d versus control group): no differences were noted
tumor growth / tumor volume (PC9ER-AZDR cells [3]): Neither erlotinib nor AZD9291 (at both low and high doses) were able to significantly inhibit tumor growth

B1: mAb 565: anti-EGFR monoclonal antibody, clone 565, CNCM I-4262; VH SEQ ID NO: 1, Vkappa SEQ ID NO: 2 (antibody, V domains shown)
VH: QVQLQQSGAELVKPGASVKLSCKASGYTFTNYWIHWVKQRPGQGLEWIGEIGPINGRSNYIEKFKTKATLTVDKSSSTTYLHLSSLTSEDSAVYYCAREDDYDGKAMDYWGQGTSVTVSS
VL: DIVMTQSHKFXSTSVGDRVSITCKASQNVGTAVAWYQQKPGQSPKLLIYWTSTRHTGVPDRFTGTGSGTEFTLTINNVQSEDLADYFCQQYSGYSFGGGTKLELKR
modifications: not fully specified; anti-EGFR 565 VH amino acid sequence; EGFR 565 kappa amino acid sequence; (11)..(11) Xaa can be any naturally occurring amino acid
EGFR protein level (degradation) [4]: almost disappeared
ERK activation / re-activation (phosphorylation) [4]: hyper-phosphorylation
phosphorylation of EGFR ([4]; listed as anti-EGFR mAb): initially reduced; also recorded: strikingly strong re-phosphorylation
inhibition of survival (PC9ER cells; 10 μg/ml, 4 days of incubation): approximately 40%
ability to inhibit survival of cultured NSCLC cells (PC9ER cells; 10 μg/ml): superior ability to inhibit survival
inhibition of survival (H1975 cells; 10 μg/ml, 4 days of incubation): approximately 40%
ability to inhibit survival of cultured NSCLC cells (H1975 cells; 10 μg/ml): superior ability to inhibit survival
tumor growth (H1975 NSCLC cells): partly inhibited tumor growth
HER2 and HER3 and their active tyrosine phosphorylated forms [5]: up-regulation
expression levels of EGFR [5]: gradual decrease

B2: mAb 12: anti-HER2 monoclonal antibody, clone N12, CNCM I-4112; VH SEQ ID NO: 3, Vkappa SEQ ID NO: 4 (antibody, V domains shown)
VH: QVQLQQSGAELVRPGDSVNLSCKASGYTFTSYWMYWIKQRPDQGLESIGNIHPNNGGTNYSGKFKNKASLTVDKSSTTAYMQLSSLTSEDSAVYFCARLTGIGMDYWGQGTSVIVSS
VL: B1 VL with X11M, K101R, L104I, R106L
modifications: of anti-HER2 N12 VH amino acid sequence; anti-HER2 N12 Vkappa amino acid sequence
ERK activation / re-activation (phosphorylation) [4]: induced ERK hyper-phosphorylation
ability to inhibit survival of cultured NSCLC cells (PC9ER cells; 10 μg/ml): superior ability to inhibit survival
ability to inhibit survival of cultured NSCLC cells (H1975 cells; 10 μg/ml): superior ability to inhibit survival
tumor growth (H1975 NSCLC cells): neither anti-HER2, anti-HER3 nor combined anti-HER2 and anti-HER3 treatment repressed tumor growth

B3: mAb 33: anti-HER3 monoclonal antibody, clone NG33; VH SEQ ID NO: 5, Vkappa SEQ ID NO: 6 (antibody, V domains shown)
VH: DVQLQESGPGLVKPSQSLSLTCSVTGYSITSGFYWSWIRQFPGNKLEWMGYIAYDGTSNYNPSLKNRISITRDTSKNQFFLKLKSVTNEDTPTYYCARGGGYYGQLLDYWGQGTSVTVSS
VL: DARMTQSPSSLSASLGDRVTISCRASQDISNYLNWYQQKPDGTVKVLIYNTAKLHSGVPSRFSGSGSGTDYSLTISNLEQEDFATYFCQQGKTLPWTFGGGTKLELK
modifications: anti-HER3 33 VH amino acid sequence; anti-HER3 33 Vkappa amino acid sequence
ability to inhibit survival of cultured NSCLC cells (PC9ER cells; 10 μg/ml): superior ability to inhibit survival
ability to inhibit survival of cultured NSCLC cells (H1975 cells; 10 μg/ml): superior ability to inhibit survival
tumor growth (H1975 NSCLC cells): neither anti-HER2, anti-HER3 nor combined anti-HER2 and anti-HER3 treatment repressed tumor growth
